From US7838288B2, “Modulators of odorant receptors” (Duke University, priority 2004, dated 2010)

What was measured:
Assay type in all cases: cell-based, mouse
MOR23-1 = experiment: CRE-luciferase reporter gene assay, MOR23-1; details: 293T cells expressing RTP1 variant
Description: Four ORs (S6/79, S18, S46 and S50) previously assayed using other techniques (see, e.g., Malnic, B., et al. (1999) Cell 96, 713-723; herein incorporated by reference in its entirety) were tested against an assay panel of aliphatic alcohols, aldehydes and acids and some other odorants. Additionally, five “orphan” class I ORs (MOR23-1, MOR31-4, MOR31-6, MOR32-5 and MOR32-11) whose cognate ligands were unknown were tested. At a suprathreshold concentration of 100 uM, all these ORs were odorant selective, responding to only a small subset of the odorants tested (see FIG. 11A). This specificity was retained at lower, more physiologically relevant concentrations. Many of these ORs responded to odorants present in micromolar concentrations. The cell-surface expression of these ORs by living-cell immunofluorescence were evaluated. Some ORs (S18, MOR31-4, MOR31-6 and MOR32-5) were strongly expressed while other ORs (S6, S50, MOR23-1, MOR32-11) were weakly expressed (see FIG. 12). […]
Dual-Glo system (Promega) for luciferase assay was used. […] Luminescence was measured using Wallac Victor 1420 (Perkin-Elmer). Normalized luciferase activity was calculated as [Luc (N)-Luc (0)]/RL (N), where Luc (N)=Luminescent count of a certain well, Luc (0)=Luminescent count without odorant for each OR, and RL (N)=Luminescent count of Renilla Luciferase of each well. […]

MOR203-1 = experiment: Living-cell staining of cell-surface MOR203-1; details: accessory protein co-transfected in 293T cells
Source text: After hypothesizing that mammalian ORs require accessory protein(s) for functional cell surface expression, a search was instituted for detecting such molecule(s). Long-SAGE (serial analysis of gene expression) libraries (see, e.g., Saha, S., et al., (2002) Nat Biotechnol 20, 508-512; herein incorporated by reference in its entirety) were constructed from single olfactory neurons as well as neurons from the vomeronasal organ and genes were collected that are expressed by these neurons. To identify candidate genes expressed by the olfactory neurons Digital Differential Display (see, e.g., http://www, followed by, .ncbi.nlm.nih.gov/UniGene/info_ddd.shtml) was also used. Candidate genes were investigated for ORFs that encode membrane associated proteins. Genes were selected with similarities to known chaperones and cloned the cDNAs from olfactory epithelium cDNAs. The mRNA expression of each gene was verified by in situ hybridization. After isolating and subcloning into mammalian expression vectors, each cDNA together with a mouse OR (MOR203-1) tagged with a 20 N-terminal amino acids of rhodopsin (Rho-tag), was transfected into 293T cells. We measured whether these clones had any effect on the cell-surface expression of ORs by staining living cells using antibodies against the Rho-tag (see, e.g., Laird, D. W., and Molday, R. S. (1988) Invest Opthalmol Vis Sci 29, 419-428; herein incorporated by reference in its entirety). When MOR203-1 was transfected alone, antibody staining detected only faint cell-surface expression in less than 1% of the cells. A schematic diagram outlining the screening procedure utilized with the present invention is provided at FIG. 1.
(§1) 293T cells were maintained in minimal essential medium containing 10% fetal bovine serum (M10). Lipofectamine 2000 (Invitrogen) was used for transfection. In live-cell staining, 16 hours after transfection, cells were incubated in M10 containing anti rhodopsin antibody, 4D2 (see, e.g., Laird, D. W., and Molday, R. S. (1988) Invest Opthalmol V is Sci 29, 419-428; herein incorporated by reference in its entirety) and 15 mM NaN3 at 4 degrees C. for 1 hour. After washing, cells were incubated with Cy3-conjugated anti mouse IgG (Jackson Immunologicals), washed and mounted. For FACS analysis, 4D2 and PE-conjugated anti mouse IgG (Jackson Immunologicals) were used to monitor the Rho tagged receptor expression. Anti HA rabbit antibodies (Sigma) and Alexa 488 conjugated anti rabbit IgG (Molecular Probes) was used to stain the HA-β2 adrenergic receptor. To establish the Hana3a cells, 1 ug/ml of puromycin was used for selection. 96 colonies were picked and assayed using luciferase assay using OREG.

23-1 = experiment: Living-cell staining of cell-surface 23-1; details: accessory protein co-transfected in 293T cells
Description: as §1

B1: RTP1-A1: RTP1 variant from deleting portions of RTP1-A; murine SEQ ID NO: 46, human SEQ ID NO: 47 (protein, listed as Mus musculus)
chain: MCKSVTTGEWKKVFYEKMEEVKPADSWDFIIDPNLKHNVLAPGWKQYLELHASGRFHCSWCWHTWQSPHVVILFHMYLDKAQRAGSVRMRVFKQLCYECGTARLDESSMLEENIESLVDNLITSLREQCYGERGGHYRIHVASRQDNRRHRGEFCEACQEGIVHWKPSEKLLEEEATTYTFSRAPSPTKPQAETGSGCNFCSIPWCLFWATVLMLIIYLQFSFRTSV
With B1 the “23-1 activity as indicated by luciferase expression” value (MOR23-1) was “Increased enhancement”, the “cell surface expression of MOR203-1” value (MOR203-1) was “Increased cell-surface staining” and the “cell-surface expression of 23-1” value (23-1) was “Increased cell-surface staining”.
